Where no end group is shown, it is not given here. [ ]: non-standard residue; d: D form. NMeE = CN[C@@H](CCC(=O)O)C(=O)O

The assay deals with clotted plasma proteins. Description: binding to plasma clots; method not described, data not shown.

For the molecule CR[NMeE]KA [CR(NMe)EKA], the Kd (commonly the constant that tells how readily two partners part at equilibrium) came to 2.5 µM. Consider CREKA [CREKA peptide (cys-arg-glu-lys-ala)], for which the Kd stood at 6 µM.

Source of the values: patent publication US20110165064A1.
